Experimental data published in patent US20220048967A1 (published 2022).
Where a chain is given by its changes, count along the chain named. Numbered stars: 1 amine (or outer) side, 2 acyl side, 3 side chain; on linkers, the order of the positions; unused ones are H or OH. Square brackets hold non-standard residues; d marks the D form. Side chains are listed from the residue outwards. Ends that are not written are not given here. * marks the point of attachment. C20 diacid = O=C(O)CCCCCCCCCCCCCCCCCCC(=O)*; γGlu = O=C(O)[C@H](CCC(=O)[*:2])N[*:1]; αMeF = C[C@](N)(Cc1ccccc1)C(=O)O; AEEA = NCCOCCOCC(=O)O; Aib = CC(C)(N)C(=O)O

T1: human GIP receptor (human, UniProt P48546 22-466)
T1 sequence (looked up): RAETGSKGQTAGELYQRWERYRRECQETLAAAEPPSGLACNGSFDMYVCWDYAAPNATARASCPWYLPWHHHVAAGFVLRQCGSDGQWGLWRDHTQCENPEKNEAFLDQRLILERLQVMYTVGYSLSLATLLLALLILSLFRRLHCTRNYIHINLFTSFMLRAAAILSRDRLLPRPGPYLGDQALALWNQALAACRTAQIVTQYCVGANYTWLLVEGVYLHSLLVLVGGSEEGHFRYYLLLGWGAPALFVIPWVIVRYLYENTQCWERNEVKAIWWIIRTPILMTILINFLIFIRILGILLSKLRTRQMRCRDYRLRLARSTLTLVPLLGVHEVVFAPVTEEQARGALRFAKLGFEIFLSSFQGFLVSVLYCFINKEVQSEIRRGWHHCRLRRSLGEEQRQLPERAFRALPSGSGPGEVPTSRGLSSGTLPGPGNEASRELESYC

B1: Example 5 (peptide)
peptide: YXEGTXTSDVSIXLDXKAQXEFIXXLIEGGPSSGAPPPS
modifications: Aib2; αMeF(2F)6; αMeL13; Orn16; K17((2-[2-(2-Amino-ethoxy)-ethoxy]-acetyl)2-(γ-Glu)-CO-(CH2)16-CO2H); Aib20; D-Glu24; αMeY25; C-terminal NH2
B2: Example 85 (peptide)
peptide: Y[Aib]EGTFTSDASILLDKK([AEEA-AEEA-γGlu-C20 diacid])AQ[Aib]AFIEYLIEGGPSSGAPPPS-NH2
modifications: N-terminus assumed
SMILES: CC[C@H](C)[C@H](NC(=O)[C@H](CC(C)C)NC(=O)[C@H](Cc1ccc(O)cc1)NC(=O)[C@H](CCC(=O)O)NC(=O)[C@@H](NC(=O)[C@H](Cc1ccccc1)NC(=O)[C@H](C)NC(=O)C(C)(C)NC(=O)[C@H](CCC(N)=O)NC(=O)[C@H](C)NC(=O)[C@H](CCCCNC(=O)COCCOCCNC(=O)COCCOCCNC(=O)CC[C@H](NC(=O)CCCCCCCCCCCCCCCCCCC(=O)O)C(=O)O)NC(=O)[C@H](CCCCN)NC(=O)[C@H](CC(=O)O)NC(=O)[C@H](CC(C)C)NC(=O)[C@H](CC(C)C)NC(=O)[C@@H](NC(=O)[C@H](CO)NC(=O)[C@H](C)NC(=O)[C@H](CC(=O)O)NC(=O)[C@H](CO)NC(=O)[C@@H](NC(=O)[C@H](Cc1ccccc1)NC(=O)[C@@H](NC(=O)CNC(=O)[C@H](CCC(=O)O)NC(=O)C(C)(C)NC(=O)[C@@H](N)Cc1ccc(O)cc1)[C@@H](C)O)[C@@H](C)O)[C@@H](C)CC)[C@@H](C)CC)C(=O)N[C@@H](CCC(=O)O)C(=O)NCC(=O)NCC(=O)N1CCC[C@H]1C(=O)N[C@@H](CO)C(=O)N[C@@H](CO)C(=O)NCC(=O)N[C@@H](C)C(=O)N1CCC[C@H]1C(=O)N1CCC[C@H]1C(=O)N1CCC[C@H]1C(=O)N[C@@H](CO)C(N)=O
B3: Example 86 (peptide)
peptide: Y[Aib]EGTFTSDYSILLDKK([AEEA-AEEA-γGlu-C20 diacid])AQ[Aib]AFIEYLIEAGPSSGAPPPS-NH2
modifications: N-terminus assumed
SMILES: CC[C@H](C)[C@H](NC(=O)[C@H](CC(C)C)NC(=O)[C@H](Cc1ccc(O)cc1)NC(=O)[C@H](CCC(=O)O)NC(=O)[C@@H](NC(=O)[C@H](Cc1ccccc1)NC(=O)[C@H](C)NC(=O)C(C)(C)NC(=O)[C@H](CCC(N)=O)NC(=O)[C@H](C)NC(=O)[C@H](CCCCNC(=O)COCCOCCNC(=O)COCCOCCNC(=O)CC[C@H](NC(=O)CCCCCCCCCCCCCCCCCCC(=O)O)C(=O)O)NC(=O)[C@H](CCCCN)NC(=O)[C@H](CC(=O)O)NC(=O)[C@H](CC(C)C)NC(=O)[C@H](CC(C)C)NC(=O)[C@@H](NC(=O)[C@H](CO)NC(=O)[C@H](Cc1ccc(O)cc1)NC(=O)[C@H](CC(=O)O)NC(=O)[C@H](CO)NC(=O)[C@@H](NC(=O)[C@H](Cc1ccccc1)NC(=O)[C@@H](NC(=O)CNC(=O)[C@H](CCC(=O)O)NC(=O)C(C)(C)NC(=O)[C@@H](N)Cc1ccc(O)cc1)[C@@H](C)O)[C@@H](C)O)[C@@H](C)CC)[C@@H](C)CC)C(=O)N[C@@H](CCC(=O)O)C(=O)N[C@@H](C)C(=O)NCC(=O)N1CCC[C@H]1C(=O)N[C@@H](CO)C(=O)N[C@@H](CO)C(=O)NCC(=O)N[C@@H](C)C(=O)N1CCC[C@H]1C(=O)N1CCC[C@H]1C(=O)N1CCC[C@H]1C(=O)N[C@@H](CO)C(N)=O
B4: Example 90 (peptide)
peptide: Y[Aib]NGTFTSDYSILLDKK([AEEA-AEEA-γGlu-C20 diacid])AQ[Aib]AFIEYLIEGGPSSGAPPPS-NH2
modifications: N-terminus assumed
SMILES: CC[C@H](C)[C@H](NC(=O)[C@H](CC(C)C)NC(=O)[C@H](Cc1ccc(O)cc1)NC(=O)[C@H](CCC(=O)O)NC(=O)[C@@H](NC(=O)[C@H](Cc1ccccc1)NC(=O)[C@H](C)NC(=O)C(C)(C)NC(=O)[C@H](CCC(N)=O)NC(=O)[C@H](C)NC(=O)[C@H](CCCCNC(=O)COCCOCCNC(=O)COCCOCCNC(=O)CC[C@H](NC(=O)CCCCCCCCCCCCCCCCCCC(=O)O)C(=O)O)NC(=O)[C@H](CCCCN)NC(=O)[C@H](CC(=O)O)NC(=O)[C@H](CC(C)C)NC(=O)[C@H](CC(C)C)NC(=O)[C@@H](NC(=O)[C@H](CO)NC(=O)[C@H](Cc1ccc(O)cc1)NC(=O)[C@H](CC(=O)O)NC(=O)[C@H](CO)NC(=O)[C@@H](NC(=O)[C@H](Cc1ccccc1)NC(=O)[C@@H](NC(=O)CNC(=O)[C@H](CC(N)=O)NC(=O)C(C)(C)NC(=O)[C@@H](N)Cc1ccc(O)cc1)[C@@H](C)O)[C@@H](C)O)[C@@H](C)CC)[C@@H](C)CC)C(=O)N[C@@H](CCC(=O)O)C(=O)NCC(=O)NCC(=O)N1CCC[C@H]1C(=O)N[C@@H](CO)C(=O)N[C@@H](CO)C(=O)NCC(=O)N[C@@H](C)C(=O)N1CCC[C@H]1C(=O)N1CCC[C@H]1C(=O)N1CCC[C@H]1C(=O)N[C@@H](CO)C(N)=O
B5: Example 88 (peptide)
peptide: YPEGTFTSDYSILLDKK([AEEA-AEEA-γGlu-C20 diacid])AQ[Aib]AFIEYLIEGGPSSGAPPPS-NH2
modifications: N-terminus assumed
SMILES: CC[C@H](C)[C@H](NC(=O)[C@H](CC(C)C)NC(=O)[C@H](Cc1ccc(O)cc1)NC(=O)[C@H](CCC(=O)O)NC(=O)[C@@H](NC(=O)[C@H](Cc1ccccc1)NC(=O)[C@H](C)NC(=O)C(C)(C)NC(=O)[C@H](CCC(N)=O)NC(=O)[C@H](C)NC(=O)[C@H](CCCCNC(=O)COCCOCCNC(=O)COCCOCCNC(=O)CC[C@H](NC(=O)CCCCCCCCCCCCCCCCCCC(=O)O)C(=O)O)NC(=O)[C@H](CCCCN)NC(=O)[C@H](CC(=O)O)NC(=O)[C@H](CC(C)C)NC(=O)[C@H](CC(C)C)NC(=O)[C@@H](NC(=O)[C@H](CO)NC(=O)[C@H](Cc1ccc(O)cc1)NC(=O)[C@H](CC(=O)O)NC(=O)[C@H](CO)NC(=O)[C@@H](NC(=O)[C@H](Cc1ccccc1)NC(=O)[C@@H](NC(=O)CNC(=O)[C@H](CCC(=O)O)NC(=O)[C@@H]1CCCN1C(=O)[C@@H](N)Cc1ccc(O)cc1)[C@@H](C)O)[C@@H](C)O)[C@@H](C)CC)[C@@H](C)CC)C(=O)N[C@@H](CCC(=O)O)C(=O)NCC(=O)NCC(=O)N1CCC[C@H]1C(=O)N[C@@H](CO)C(=O)N[C@@H](CO)C(=O)NCC(=O)N[C@@H](C)C(=O)N1CCC[C@H]1C(=O)N1CCC[C@H]1C(=O)N1CCC[C@H]1C(=O)N[C@@H](CO)C(N)=O
B6: Example 92 (peptide)
peptide: Y[Aib]EGT[αMeF]TSDK([AEEA-AEEA-γGlu-C20 diacid])SILLDKIAQ[Aib]AFIEYLIEGG-NH2
modifications: N-terminus assumed
SMILES: CC[C@H](C)[C@H](NC(=O)[C@H](CCCCN)NC(=O)[C@H](CC(=O)O)NC(=O)[C@H](CC(C)C)NC(=O)[C@H](CC(C)C)NC(=O)[C@@H](NC(=O)[C@H](CO)NC(=O)[C@H](CCCCNC(=O)COCCOCCNC(=O)COCCOCCNC(=O)CC[C@H](NC(=O)CCCCCCCCCCCCCCCCCCC(=O)O)C(=O)O)NC(=O)[C@H](CC(=O)O)NC(=O)[C@H](CO)NC(=O)[C@@H](NC(=O)[C@](C)(Cc1ccccc1)NC(=O)[C@@H](NC(=O)CNC(=O)[C@H](CCC(=O)O)NC(=O)C(C)(C)NC(=O)[C@@H](N)Cc1ccc(O)cc1)[C@@H](C)O)[C@@H](C)O)[C@@H](C)CC)C(=O)N[C@@H](C)C(=O)N[C@@H](CCC(N)=O)C(=O)NC(C)(C)C(=O)N[C@@H](C)C(=O)N[C@@H](Cc1ccccc1)C(=O)N[C@H](C(=O)N[C@@H](CCC(=O)O)C(=O)N[C@@H](Cc1ccc(O)cc1)C(=O)N[C@@H](CC(C)C)C(=O)N[C@H](C(=O)N[C@@H](CCC(=O)O)C(=O)NCC(=O)NCC(N)=O)[C@@H](C)CC)[C@@H](C)CC
B7: Example 84 (peptide)
peptide: YXEGTFTSDYSILLDKKAQXAFIXYLIEGGPSSGAPPPS
modifications: Aib2; K17((2-[2-(2-Amino-ethoxy)-ethoxy]-acetyl)2-(γ-Glu)-CO-(CH2)18-CO2H); Aib20; D-Glu24; C-terminal NH2
B8: Example 91 (peptide)
peptide: B7 peptide with E3X, X24E
modifications: Aib2; γ-Glu3; K17((2-[2-(2-Amino-ethoxy)-ethoxy]-acetyl)2-(γ-Glu)-CO-(CH2)18-CO2H); Aib20; C-terminal NH2
B9: Example 89 (peptide)
peptide: B7 peptide with E3X, X24E
modifications: Aib2; Aad3; K17((2-[2-(2-Amino-ethoxy)-ethoxy]-acetyl)2-(γ-Glu)-CO-(CH2)18-CO2H); Aib20; C-terminal NH2

Assays:
human GIP receptor = molecular target: T1, human GIP receptor; experiment: cell-based or functional assay
human GLP-1 receptor = human GLP-1 receptor (human, UniProt P43220 24-463); experiment: cell-based or functional assay

Binder	hGIPR cAMP EC50 ratio (human GIP receptor)	hGIPR cAMP Rel EC50 (human GIP receptor) [nM]	hGLP1R cAMP EC50 ratio (human GLP-1 receptor)	hGLP1R cAMP Rel EC50 (human GLP-1 receptor) [nM]
B1	6.27	0.0309	2.69	0.0164
B2	0.111	1.67	1.13	0.0518
B3	3.29	0.0452	0.243	0.271
B4	5.17	0.0361	0.11	0.532
B5	0.392	0.475	0.0918	0.64
B6	0.546	0.338	0.258	0.257
B7	1.59	0.0915	0.173	0.374
B8	0.0103	19.2	< 1.08e-05	> 5000
B9	1.57	0.119	0.175	0.335
